Measured values: patent publication EP4703387A1 (University of Tsukuba, dated 2026)
Changes are numbered by the printed parent chain. In names and notes the source's numbering stands. One block for each binder: values may come before it.

Legend:
human CD300A-Q [1] = biological target: T1, human CD300A-Q (human, UniProt Q9UGN4 18-299); experiment: flow cytometry on BW/huCD300A-Q cells, purified antibody, 0.5 µg per 1 × 10^5 cells
T1 construct: whole, on cells; also called huCD300A-Q; human CD300A^Gln111
T1 sequence (looked up): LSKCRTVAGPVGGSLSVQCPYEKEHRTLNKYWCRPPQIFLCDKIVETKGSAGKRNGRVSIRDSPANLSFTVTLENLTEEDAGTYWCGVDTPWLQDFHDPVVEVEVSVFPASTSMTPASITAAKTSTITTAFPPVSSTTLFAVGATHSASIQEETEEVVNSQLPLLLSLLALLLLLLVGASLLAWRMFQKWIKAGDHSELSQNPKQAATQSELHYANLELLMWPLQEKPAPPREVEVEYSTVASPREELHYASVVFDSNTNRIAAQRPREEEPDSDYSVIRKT

human CD300C [2] = biological target: T2, human CD300C (human, UniProt Q08708 21-224); experiment: flow cytometry on BW/huCD300C cells, purified antibody
T2 construct: whole, on cells; also called huCD300C; BW/huCD300C
T2 sequence (looked up): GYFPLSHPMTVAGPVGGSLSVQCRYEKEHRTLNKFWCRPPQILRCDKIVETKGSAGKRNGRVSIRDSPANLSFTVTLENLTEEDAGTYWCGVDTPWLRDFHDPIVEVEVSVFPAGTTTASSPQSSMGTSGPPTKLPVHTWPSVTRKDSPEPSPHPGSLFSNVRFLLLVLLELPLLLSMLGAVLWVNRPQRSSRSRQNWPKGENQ

human CD300A-Q [3] = biological target: T1, human CD300A-Q; experiment: assay not given; reference antibody in the CD300A-Q flow cytometry comparison of paragraph 258
human CD300A-Q [4] = biological target: T1, human CD300A-Q; experiment: flow cytometry analysis using CD300A-Q
[5] = biological target: T3, human CD300A-R (as used in the BLI measurement) (human, UniProt Q9UGN4 18-180, limits assumed); experiment: biolayer interferometry (BLI); format not described
T3 sequence (looked up): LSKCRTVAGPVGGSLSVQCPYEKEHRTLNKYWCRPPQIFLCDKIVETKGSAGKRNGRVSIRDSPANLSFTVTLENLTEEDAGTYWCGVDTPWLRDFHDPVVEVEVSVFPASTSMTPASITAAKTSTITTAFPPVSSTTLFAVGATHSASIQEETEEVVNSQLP

human CD300C [6] = biological target: T2, human CD300C; experiment: flow cytometry on BW/huCD300C cells, biotinylated antibody with SA-APC
human CD300A-Q [7] = biological target: T1, human CD300A-Q; experiment: assay not named for Hu NO. 1T on CD300A-Q (CD300A-Q flow cytometry is listed for Hu NO. 1R, 1U and 1W)
human CD300A-Q [8] = biological target: T1, human CD300A-Q; experiment: assay not named for Hu NO. 1V on CD300A-Q (CD300A-Q flow cytometry is listed for Hu NO. 1R, 1U and 1W)

B1: Antibody NO. 3 (antibody, V domains shown)
VH: QIQLVQSGPELKKPGETVKISCKASGYTFTHYGLNWVKQAPGKGLQWMGWIHTYTGESTYADDFKGRSAFSLETSASTAYLQINNLKNEDTATYFCARGGKDALDYWGQGTSVTVSS
VL: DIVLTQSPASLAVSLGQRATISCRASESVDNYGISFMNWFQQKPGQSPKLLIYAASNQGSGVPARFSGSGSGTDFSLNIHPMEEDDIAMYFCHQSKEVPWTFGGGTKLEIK
notes: Mouse monoclonal antibody from a hybridoma
- binding result (human CD300A-Q [1]): binds
- binding result (human CD300C [2]): no binding (tested: 0.5 µg antibody per 1 × 10^5 cells)

B2: Antibody NO. 1 (antibody, V domains shown)
VH: EVQLVESGGDLVKPGGSLKLSCAASGFTFSSYGMSWVRQTPDKRLEWVATISSGGSYTYYPDSVKGRFTISRDNAKNTLYLQMSSLKSEDTAMYYCARHGDYGYPWFAYWGQGTLVTVSA
VL: QIVLTQSPAIMSASLGERVTMTCTASSSVSSSYLHWYQQKPGSSPKLWIYSTSNLASGVPARFSGSGSGTSYSLTISSMEAEDAATYYCHQYHRSHTFGGGTKLEIK
notes: Mouse monoclonal antibody from a hybridoma, purified from ascites; also called mouse Antibody NO
- binding result (human CD300A-Q [1]): binds
- binding result (human CD300C [2]): no binding (tested: 0.5 µg antibody per 1 × 10^5 cells)

B4: HuNO.1R (antibody, V domains shown)
VH: EVQLVESGGGLVQPGGSLRLSCAASGFTFSSYGMSWVRQAPGKRLEWVATISSGGSYTYYPDSVKGRFTISRDNAKNSLYLQMNSLRAEDTAVYYCARHGDYGYPWFAYWGQGTMVTVSS
VL: QIQMTQSPSSLSASVGDRVTMTCTASSSVSSSYLHWYQQKPGKAPKLWIYSTSNLASGVPSRFSGSGSGTDYTLTISSLQPEDFATYYCHQYHRSHTFGGGTKVEIK
notes: Transient HEK293 supernatant; Human IgG/kappa constant regions
- binding result (human CD300A-Q [4]): binds

B5: HuNO.1U (antibody, human IgG1, kappa, L234A L235A, V domains shown)
VH: B4 VH with G42D
VL: QIQMTQSPSSLSASVGDRVTMTCTASSSVSSSYLHWYQQKPGKAPKLWIYSTSNLASGVPSRFSGSGSGTDYTLTISSLQPEDFATYYCHQYHRSHTFGGGTKVEIKR
notes: VH = Hu NO; also called Humanized NO; 1 antibody
- Kd [5]: 22 nM
- binding result (human CD300C [6]): no binding (tested: 0.5 µg antibody per 1 × 10^5 cells)

More lines, now with the values ahead:

- binding result (human CD300A-Q [3]): binds
B3: chimeric NO. 1 IgG1/kappa antibody (Ch NO. 1) (antibody, V domains shown)
VH: B2 VH
VL: B2 VL
notes: Mouse NO; 1 VH and VL on human γ-1 and κ constant regions; The γ-1 chain carries L234A/L235A; also called mouse-human chimeric NO; 1 IgG1/kappa antibody

- binding result (human CD300A-Q [7]): binds
B6: HuNO.1T (antibody, V domains shown)
VH: B4 VH with R19K
VL: B4 VL
notes: as for B4

- binding result (human CD300A-Q [8]): binds
B7: HuNO.1V (antibody, V domains shown)
VH: B4 VH with V93M
VL: B4 VL
notes: Position 89 may be a Kabat number rather than a count on the entry; Transient HEK293 supernatant; Human IgG/kappa constant regions

- binding result (human CD300A-Q [4]): binds
B8: HuNO.1W (antibody, V domains shown)
VH: B4 VH with G10D
VL: B4 VL
notes: as for B4
